The source of these data is doi:10.1101/494930 (bioRxiv, 2018).

Sequences and labels used below:
B1: WT-HYPE (aa 102-458) (enzyme)
chain: GKLEARAALNQALEMKRQGKREKAQKLFMHALKMDPDFVDALTEFGIFSEEDKDIIQADYLYTRALTISPYHEKALVNRDRTLPLVEEIDQRYFSIIDSKVKKVMSIPKGNSALRRVMEETYYHHIYHTVAIEGNTLTLSEIRHILETRYAVPGKSLEEQNEVIGMHAAMKYINTTLVSRIGSVTISDVLEIHRRVLGYVDPVEAGRFRTTQVLVGHHIPPHPQDVEKQMQEFVQWLNSEEAMNLHPVEFAALAHYKLVYIHPFIDGNGRTSRLLMNLILMQAGYPPITIRKEQRSDYYHVLEAANEGDVRPFIRFIAKCTETTLDTLLFATTEYSVALPEAQPNHSGFKETLPVKP
B2: His6-BiP SBD (aa 418-637) (domain or fragment)
chain: not shown

Where “and” joins values, the source holds several entries; their conditions need not be identical. Equal entries are not always repeated.

Common to all, as to test: BLI
Background: Biolayer interferometry detects binding as a change in optical thickness at a sensor tip.

In assay [1] the target is BiP-His6 (WT-BiP, aa 19-637) (human, UniProt P11021 19-637).
The target in assay [2] is His6-BiP NBD (aa 28-405) (human, UniProt P11021 28-405).
In assay [3] the target is B1.

BiP-His6 (WT-BiP, aa 19-637), sequence (P11021 19-637): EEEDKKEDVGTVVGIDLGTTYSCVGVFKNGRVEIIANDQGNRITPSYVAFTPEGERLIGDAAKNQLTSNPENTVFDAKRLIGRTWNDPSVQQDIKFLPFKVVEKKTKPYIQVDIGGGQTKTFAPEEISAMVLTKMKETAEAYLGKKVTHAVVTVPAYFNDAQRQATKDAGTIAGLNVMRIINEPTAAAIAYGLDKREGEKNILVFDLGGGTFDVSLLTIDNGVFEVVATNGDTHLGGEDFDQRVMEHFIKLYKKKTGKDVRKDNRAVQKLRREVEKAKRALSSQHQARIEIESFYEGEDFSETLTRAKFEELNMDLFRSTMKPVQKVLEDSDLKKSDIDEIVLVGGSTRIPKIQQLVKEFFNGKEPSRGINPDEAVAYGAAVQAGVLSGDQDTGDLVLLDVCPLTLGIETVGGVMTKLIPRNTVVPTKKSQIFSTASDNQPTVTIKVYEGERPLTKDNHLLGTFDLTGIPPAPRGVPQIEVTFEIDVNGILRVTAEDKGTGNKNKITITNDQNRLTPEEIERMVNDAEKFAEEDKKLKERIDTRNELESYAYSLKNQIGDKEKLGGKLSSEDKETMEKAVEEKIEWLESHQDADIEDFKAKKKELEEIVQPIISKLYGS
His6-BiP NBD (aa 28-405), sequence (P11021 28-405): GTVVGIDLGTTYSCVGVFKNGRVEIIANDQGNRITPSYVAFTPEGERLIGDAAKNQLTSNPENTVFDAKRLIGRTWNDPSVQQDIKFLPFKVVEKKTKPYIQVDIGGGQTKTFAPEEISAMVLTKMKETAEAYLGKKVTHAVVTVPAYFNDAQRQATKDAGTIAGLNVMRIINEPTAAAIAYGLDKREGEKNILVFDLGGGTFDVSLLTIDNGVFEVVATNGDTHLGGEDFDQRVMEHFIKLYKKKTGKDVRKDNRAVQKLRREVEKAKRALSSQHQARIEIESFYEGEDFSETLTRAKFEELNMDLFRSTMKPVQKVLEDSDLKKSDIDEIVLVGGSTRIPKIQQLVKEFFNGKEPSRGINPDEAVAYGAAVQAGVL

For B1, the dissociation constant Kd was 4.5 µM and 6.1 µM in assay [1]; 3.16 µM in assay [2].
In assay [3], B2 returned a Kd of 6.85 µM. That is a single-digit micromolar value.

In general, Kd refers to the concentration at which binding is half-saturated.
